In one experiment the target is C1q (human) (UniProt P02745). The experiment in a line: ELISA; C1q binding ELISA: plates coated with 5 ug/mL CA521 subtypes or OPDIVO (IgG4), fourfold serial dilutions starting at 40 ug/mL, 2 h at 37 C, C1q detected by HRP anti-human C1q; x axis of the figure: antibody concentration (nM); duplicate. A general note: ELISA stands for enzyme-linked immunosorbent assay.
A further experiment addresses FcγRIIB/C (human) (UniProt P31994). The experiment in a line: SPR. For orientation: In SPR one partner is held on a chip, and binding of the other changes the refractive index at the surface.
A further experiment concerns the target FcγRIIA R167 (human) (UniProt P12318). The experiment in a line: SPR.
For experiment [1], the target named is Gama Fc Receptor 1 (CD64) (human) (UniProt P12314). The experiment in a line: SPR.

By IC50 is commonly meant the concentration that gives 50% inhibition. A higher IC50 goes with lower potency. As usually defined, the Kd is the free concentration of one partner at which half of the binding sites on the other are occupied at equilibrium, for simple one-to-one binding. The low end stands for tighter binding, the high end for weaker binding.

Chain of C1q (human) (P02745 23-245, chain 1 of 3): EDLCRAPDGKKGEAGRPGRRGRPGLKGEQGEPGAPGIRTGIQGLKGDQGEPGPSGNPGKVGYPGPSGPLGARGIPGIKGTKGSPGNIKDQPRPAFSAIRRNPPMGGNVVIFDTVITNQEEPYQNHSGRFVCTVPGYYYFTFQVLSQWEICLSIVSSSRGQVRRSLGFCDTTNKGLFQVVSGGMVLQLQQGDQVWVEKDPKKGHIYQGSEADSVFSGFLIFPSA
Chain of C1q (human) (P02746 28-253, chain 2 of 3, further chain): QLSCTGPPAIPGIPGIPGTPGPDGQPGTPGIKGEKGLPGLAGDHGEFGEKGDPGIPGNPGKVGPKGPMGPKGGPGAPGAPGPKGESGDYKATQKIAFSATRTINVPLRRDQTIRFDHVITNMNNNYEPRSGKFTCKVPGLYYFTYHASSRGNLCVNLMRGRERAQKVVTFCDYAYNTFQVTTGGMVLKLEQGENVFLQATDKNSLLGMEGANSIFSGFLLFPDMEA
Chain of C1q (human) (P02747 29-245, chain 3 of 3, further chain): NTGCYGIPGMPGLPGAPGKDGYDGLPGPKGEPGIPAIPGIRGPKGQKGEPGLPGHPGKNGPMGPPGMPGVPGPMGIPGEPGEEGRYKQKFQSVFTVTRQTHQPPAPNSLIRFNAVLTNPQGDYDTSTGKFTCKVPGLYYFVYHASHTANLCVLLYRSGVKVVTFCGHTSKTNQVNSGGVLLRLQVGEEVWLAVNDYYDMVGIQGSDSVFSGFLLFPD
Chain of FcγRIIA R167 (human) (P12318 34-217 H167R): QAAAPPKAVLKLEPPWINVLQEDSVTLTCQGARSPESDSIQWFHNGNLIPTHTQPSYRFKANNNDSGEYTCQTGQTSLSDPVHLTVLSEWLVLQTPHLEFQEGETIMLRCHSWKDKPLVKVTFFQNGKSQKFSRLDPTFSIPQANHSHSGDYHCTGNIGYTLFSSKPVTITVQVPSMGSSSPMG
Chain of Gama Fc Receptor 1 (CD64) (human) (P12314 16-374): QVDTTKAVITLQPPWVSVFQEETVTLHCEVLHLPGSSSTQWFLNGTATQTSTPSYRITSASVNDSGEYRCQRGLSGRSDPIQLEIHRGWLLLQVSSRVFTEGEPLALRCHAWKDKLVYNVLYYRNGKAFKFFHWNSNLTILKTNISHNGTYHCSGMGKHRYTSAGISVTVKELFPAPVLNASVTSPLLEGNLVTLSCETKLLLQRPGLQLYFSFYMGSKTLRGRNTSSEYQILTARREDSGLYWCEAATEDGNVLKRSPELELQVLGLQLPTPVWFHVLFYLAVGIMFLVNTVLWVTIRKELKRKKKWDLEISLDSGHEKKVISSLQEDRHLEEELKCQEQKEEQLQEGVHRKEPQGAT
Chain of FcγRIIB/C (human) (P31994 43-217): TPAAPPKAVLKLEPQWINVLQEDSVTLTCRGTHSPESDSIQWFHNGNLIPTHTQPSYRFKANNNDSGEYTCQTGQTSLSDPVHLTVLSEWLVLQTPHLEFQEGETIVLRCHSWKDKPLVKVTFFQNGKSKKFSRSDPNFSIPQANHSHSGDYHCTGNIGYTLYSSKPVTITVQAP

Opdivo (IgG4) (antibody): in the experiment with C1q (human), the half-inhibitory concentration (IC50) worked out at 35.9 nM.
Consider CA521(IgG1) (from UniProt P01857), for which the values for the Kd (with FcγRIIB/C (human); with FcγRIIA R167 (human); in experiment [1]) were 20400 nM, 5110 nM and 3.12 nM, respectively.

Source of the values: paper PMC8065039.
